Test results published in patent publication US20140366219A1, “Increasing Soybean Defense Against Pests” (priority 2011, published 2014).

Key:
NtSABP2 = target: T1, NtSABP2 (Nicotiana tabacum, UniProt Q6RYA0); conditions: esterase activity toward MeSA; cited from earlier work
T1 sequence (Q6RYA0 1-260): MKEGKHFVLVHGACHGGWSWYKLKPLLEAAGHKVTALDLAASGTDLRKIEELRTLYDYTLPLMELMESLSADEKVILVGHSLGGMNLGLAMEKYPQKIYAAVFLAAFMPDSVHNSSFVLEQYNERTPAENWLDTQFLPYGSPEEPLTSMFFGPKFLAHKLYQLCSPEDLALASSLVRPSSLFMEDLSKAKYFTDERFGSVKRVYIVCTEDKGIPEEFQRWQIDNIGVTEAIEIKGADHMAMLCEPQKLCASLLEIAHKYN

StMES1 = conditions: esterase activity toward MeSA; cited from earlier work
PtSABP2-1 = conditions: esterase activity toward MeSA; cited from earlier work
PtSABP2-2 = conditions: esterase activity toward MeSA; cited from earlier work
AtMES9 = target: T2, AtMES9 (Arabidopsis thaliana, UniProt O23171); conditions: esterase activity toward MeSA; cited from earlier work
T2 sequence (O23171 1-256): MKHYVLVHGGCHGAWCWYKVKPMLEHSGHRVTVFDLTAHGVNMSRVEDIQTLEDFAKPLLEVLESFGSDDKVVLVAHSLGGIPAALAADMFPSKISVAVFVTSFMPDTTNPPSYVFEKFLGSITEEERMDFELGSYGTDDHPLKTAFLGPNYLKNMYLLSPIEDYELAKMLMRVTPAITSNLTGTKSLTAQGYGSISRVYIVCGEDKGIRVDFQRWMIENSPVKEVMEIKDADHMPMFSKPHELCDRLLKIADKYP

AtMES1 = target: T3, AtMES1 (Arabidopsis thaliana, UniProt Q8S8S9); conditions: esterase activity toward MeSA; cited from earlier work
T3 sequence (Q8S8S9 1-263): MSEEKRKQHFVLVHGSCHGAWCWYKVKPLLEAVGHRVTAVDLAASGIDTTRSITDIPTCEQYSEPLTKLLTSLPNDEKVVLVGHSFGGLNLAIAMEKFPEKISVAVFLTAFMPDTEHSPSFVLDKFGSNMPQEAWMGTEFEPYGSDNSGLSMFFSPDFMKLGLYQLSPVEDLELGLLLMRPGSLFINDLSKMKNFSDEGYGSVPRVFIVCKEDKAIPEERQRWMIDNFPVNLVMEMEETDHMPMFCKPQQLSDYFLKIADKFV

[1] = substrate: COC(=O)c1ccccc1O; assay: Two-step radiochemical methyl ester esterase assay, kinetic parameters of GmSABP2-1; format: biochemical, soybean; conditions: other: MeSA 5 μM to 100 μM, Lineweaver-Burk; 25.0 °C
Protocol: A two-step radiochemical esterase assay was performed to determine the activity of E. coli-expressed Glyma16g26060 following a protocol previously reported by (Forouhar et al., Proc. Natl. Acad. Sci. USA 102: 1773-1778, 2005). The reaction of the first step was the reaction of substrate 10 μM MeSA and purified recombinant E. coli-expressed Glyma16g26060 for 30 min at 25° C. After that, the sample was boiled to stop the reaction and denature the enzyme. The second reaction step was started with the addition of 3 μM ^14C labeled S-adenosyl-L-methionine (SAM) with a specific activity of 51.4 mCi/mmol (Perkin Elmer, Boston, Mass., USA), and respective known purified methyltransferase with high activity. Here, GmSAMT1 mentioned previously was used for SA methyltransferase enzyme. The reaction was preceded for 30 min at 25° C. Then radiolabeled products were extracted and the radioactivity was counted using a liquid scintillation counter.
Appropriate enzyme concentrations and incubation time were determined in time-course assays so that the reaction velocity was linear during the assay period. To determine the Km for MeSA, the concentrations of MeSA were independently varied in the range from 5 μM to 100 μM. Lineweaver-Burk plots were made to obtain apparent Km value. Optimal pH for GmSABP2-1 was assayed from pH 6.0 to pH 9.0. Final values are an average of three independent measurements.

SCN race 2 = assay: Nematode infection and demographics assay in transgenic soybean hairy roots; format: in vivo, Heterodera glycines; conditions: for reduction of susceptibility: susceptibility of vector control in susceptible background set at 100%; for (J3+J4)/total SCN ratio: overexpressing transgenic hairy roots, two weeks after inoculation
Description: The soybean hairy root transformation system by infection with A. rhizogenes harboring the target genes were modified and used to study soybean resistance against SCN. A. rhizogenes K599 harboring the target gene, vector control and A. rhizogenes K599 alone were used to inoculate the TN02-275 soybeans, which are susceptible to SCN race 2. To better evaluate the resistance of the target gene, A. rhizogenes harboring the vector control and A. rhizogenes K599 alone were also used to inoculate the TN02-226 soybeans, which are resistant to SCN race 2. Generation of soybean hairy roots was modified as follows: First, soybean seeds were sterilized with chlorine gas. Second, a single layer of mature soybean seeds with intact seed coats were placed in open Petri dish, which was put in a bell jar desiccator within a fume hood. A beaker with 100 ml bleach was also placed in the desiccator and added 5 ml concentrated (12N) HCl along the side of the beaker. Then the seeds were kept in the closed desiccator immediately and maintained in the chlorine gas atmosphere overnight (about 16 h). After sterilization, seeds were transferred to the autoclaved filter paper moistened with sterilized distilled water in the Petri dishes for germination in a laminar flow hood. The germinated soybean seeds were sowed in sterilized vermiculite and six seeds were grown in each cell of 18-cell germination tray. The overnight cultured bacteria lawn of A. rhizogenes K599 with binary vector pJL-OFP, pJL-OFP-35S::GUS or pJL-OFP-35S::GmSAMT1 from LB medium plate containing […] kanamycin, or a culture of A. rhizogenes K599 lacking the binary vector grown in LB medium without any antibiotics was collected and suspended in 1 ml of sterile distilled water, respectively. Soybean cotyledonary nodes and upper hypocotyls of 5-day-old seedlings with unfolded cotyledons were stabbed three times by the syringe containing the bacterial suspension. In the first week, the trays were covered with the sterile transparent lids to retain high humidity. In the subsequent three weeks, plants were transferred into pots and the A. rhizogenes wounding sites were covered by wet sterile vermiculite to continually keep high humidity. Each day soybean plants were watered using sterile B&D solution containing 1 mM CaCl2, 0.5 mM KH2PO4, 10 μM Fe-citrate, 0.25 mM MgSO4, 0.25 mM K2SO4, 1 μM MnSO4, 2 μM H3BO4, 0.5 μM ZnSO4, 2 μM CuSO4, 0.1 μM CoSO4, 0.1 μM Na2MoO4, and 1 mM KNO3. The growth conditions for soybean plants were 12 h light/12 h dark at 28° C./25° C. with irradiance from fluorescent bulbs at 150-200 μmol m^−2·s^−1. After about four weeks, the hairy roots grew to approximately 10 cm in length. Soybean transgenic roots were detected based on OFP expression, using a fluorescence stereomicroscope (Olympus SZX12 fluorescence microscope and OFP filter). The tap root and non-transgenic roots were excised under the wounding site. Transgenic roots harboring pJL-OFP-35S::GUS screened by OFP signal were immersed in GUS solution (1 mM X-Gluc), 0.5 mM potassium ferrocyanide, 0.1% (v/v) TRITON™ X-100, 100 mM sodium phosphate buffer pH 7.0), and incubated at 37° C. overnight. In the following day, the X-Gluc solution was discarded. The roots were washed repeatedly with 70% ethanol to remove chlorophyll. Transgenic roots with visual GUS stain were recorded.
To easily compare the SCN infection, one transgenic root was left for the SCN inoculation. […]

GmICS2 (Glyma03g17420) = assay: qRT-PCR of GmICS2 in transgenic hairy roots; design: species or system soybean; conditions: Williams 82 transgenic hairy roots, without SCN treatment
GmICS1 (Glyma01g25690) = assay: qRT-PCR of GmICS1 in transgenic hairy roots; design: species or system soybean; conditions: Williams 82 transgenic hairy roots, without SCN treatment

Question: Which results are given for COC(=O)c1ccccc1O [MeSA, methyl salicylate]?
Answer: Km (NtSABP2): 8.6 µM; Km (StMES1): 57.9 µM; Km (PtSABP2-1): 68.2 µM; Km (PtSABP2-2): 24.6 µM; Km (AtMES9): 147 µM; Km (AtMES1): 57.3 µM

B1: GmSABP2-1 (Glycine max) (protein)
chain: MGSQNCMDRKHYVLVHGACHGAWCWYKLKPRLESAGHKVTVLDLAASGTNMKKIEDVDTFSEYSAPLLQLMATIPSNEKLVLVGHSLGGLNIALAMEKFPEKVAVGVFLTAFAPDTEHHPSYVLEKYNERTPLAAWLDTEFAPSGNKTSMFFGPNFLSDKLYQLSPIEDLELAKTLARPSSLFMEDLTKQKNFSKEGYGSVPRAFIVCTEDLGIPLEYQLLMIQNVGFNDVVEVKDADHMVMLCKPQELFDSLQQIATKYA
Question: For B1, which Km [1] is on record?
Answer: Its Km is 46.2 ± 2.2 µM.

B2: GmSAMT1: soybean salicylic acid methyltransferase gene (SEQ ID NO: 1), over-expressed in transgenic hairy roots via pJL-OFP-35S::GmSAMT1 (nucleic acid)
DNA: ATGGAAGTAGCACAGGTACTCCACATGAACGGTGGCGTTGGAGACGCAAGCTATGCAAACAACTCCCTTGTTCAGCAAAAGGTGATTTGTTTGACAAAGCCCATAAGAGAGGAAGCCATAAGAAGCCTCTATTGCAGCACACACCCCAGAAGCTTGGCAATTGCAGATTTGGGTTGCTCTTCTGGACCAAACACTTTATTTGTTGTGTCTGAATTCATAAAAATTGTGGAGAAGCTTTGCCGAGAGCTGAACCACAAATCTCCAGAATACAAAGTCTTTCTGAATGATCTCCCTGGGAATGACTTCAACAACATCTTCAAGTCTCTTGACAGCGTCAAAGAGAAATTGTGTGATGAAATGGAAAGTGGGATCGGTCCATGCTACTTCTCGGGTGTTCCCGGTTCTTTCTATGGAAGGGTTTTCCCATATCAAAGTCTTCATTTTGTCCATTCCTCATACAGCCTTCAATGGCTATCTAAGGTTCCTGAGGGTGTAGACAACAACAAGGGCAATGTTTACATAGGCAGTACGAGCCCCAAAAATGTTGTGAGAGCTTACTATGAGCAATTTCAGAGAGATTTCTCTCTTTTTCTCAAGTGTCGTGCAGAGGAATTGGTTGAAGGAGGACGCATGGTTCTCACATTTTTGGGAAGAAGAAGCGATGATCCATCTAGCAAGGATGGTTGCTACATTTGGGAGCTTTTGGCTACTGCTCTTAGTGATATGGTCTTGCAGGGAATCATAAGAGAAGAGCAATTAGATACTTTTAACATCCCTCAATACACTCCATCCCCATCTGAAGTGAAATTGGAAGTTCTTAAAGAAGGATCATTCGCCATCAATCGTCTAGAGGTTTCTGAGGTGAATTGGAATGCTCTCGATGAGTGGAATGCTCTAGACTTTGAATCTGAAAGGTCTGAATCACTTAGTGATGGTGAATACAATGTGGCACAGTGCATGAGGGCTGTGGCAGAACCTATGCTGATTAGCCACTTTGGTGAAGCTATCATTGAAGAGGTTTTTTGCCGCTACCAGCAAATCTTGGCTGAACGTATGTCCAAGGAGAAAACCAAGTTCATCAATGTTACCATATTATTGACTAGAAAAGCATAA
modifications: Glycine Max
Question: For B2, which reduction of susceptibility (SCN race 2; TN02-275 background) is on record?
Answer: The reduction of susceptibility was 85.6%.

Question: What about the reduction of susceptibility (SCN race 2; Williams 82 background) of the same molecule?
Answer: The reduction of susceptibility was 71.2%.

Question: And the “(J3+J4)/total SCN ratio” value (SCN race 2; TN02-275 background)?
Answer: Its value is 3.4%.

Question: What about the “(J3+J4)/total SCN ratio” value (SCN race 2; Williams 82 background) of the same molecule?
Answer: Its value is 5.3%.

Question: What about the “GmICS2 transcript abundance relative to controls” value (GmICS2 (Glyma03g17420)) of the same molecule?
Answer: The value was 8.2 times.

Question: And the “GmICS1 transcript abundance relative to controls” value (GmICS1 (Glyma01g25690))?
Answer: The value was 5.3 times.
